Experimental findings from patent US5645817, “Granulocyte-binding antibody constructs, their preparation and use” (Behringwerke Aktiengesellschaft, dated 1997) are described below.

The assay deals with carcinoembryonic antigen (CEA) (Homo sapiens (Human), UniProt P06731). Nature of the assay: characterisation according to Example 2 (ELISA on CEA); told in words. On the procedure:
Supernatants from BHK cells, which had been transfected with the DNA constructs of the second version of the hum 250/183, were tested for their content of humMab and for the specificity of the humMab.
However, the polystyrene plates were coated with 75 μl of CEA at a concentration of 15 μg/ml. Equal volumes of different concentrations (consecutively dilutions 1:2)

B1: hum 250/183 (second version of the humanized Mab BW 250/183) (antibody, V domains shown)
VH: QVQLQESGPGLVRPSQTLSLTCTVSGFSDYYMNWVRQPPGRGLEWIGFISNKPNGHTTEYSASVKGRVTMLRDTSKNQFSLRLSSVTAADTAVYYCARDKGIRWYFDVWGQGSLVTVSS
VL: DIQMTQSPSSLSASVGDRVTITCRASSSVSYMHWYQQKPGKAPKPLIYATSNLASGVPSRFSGSGSGTDFTFTISSLQPEDIATYYCQQWSSNPLTFGQGTKVEIKR
In the case of B1, the binding result was “binds”.
